Patent US20250108114A1

Key:
Test in all cases: cell-based or functional assay
[1] = target: BCMA on H929 myeloma cells (human) (UniProt Q02223)
[2] = target: truncated BCMA (amino acid 1 to 98) on SKOV3 cells (human) (UniProt Q02223)
[3] = target: CD19 on GFP/Luc+ Raji cells (human) (UniProt P15391)
[4] = target: truncated CD19 (amino acid 1 to 342) on SKOV3 cells (human) (UniProt P15391)
Chain of truncated CD19 (amino acid 1 to 342) on SKOV3 cells (human) (P15391 20-342 limits assumed, form in doubt): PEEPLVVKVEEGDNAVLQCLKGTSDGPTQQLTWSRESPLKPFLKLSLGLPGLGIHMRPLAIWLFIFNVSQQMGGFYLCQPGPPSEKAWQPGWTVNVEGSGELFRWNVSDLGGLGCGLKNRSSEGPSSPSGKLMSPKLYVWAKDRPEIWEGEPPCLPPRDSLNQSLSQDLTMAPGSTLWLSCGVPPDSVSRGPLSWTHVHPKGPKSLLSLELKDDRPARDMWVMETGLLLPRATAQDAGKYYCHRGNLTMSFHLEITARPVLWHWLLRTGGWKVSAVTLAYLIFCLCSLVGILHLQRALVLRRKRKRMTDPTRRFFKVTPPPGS

Chain of BCMA on H929 myeloma cells (human) (Q02223 whole entry, the tested form may be a part): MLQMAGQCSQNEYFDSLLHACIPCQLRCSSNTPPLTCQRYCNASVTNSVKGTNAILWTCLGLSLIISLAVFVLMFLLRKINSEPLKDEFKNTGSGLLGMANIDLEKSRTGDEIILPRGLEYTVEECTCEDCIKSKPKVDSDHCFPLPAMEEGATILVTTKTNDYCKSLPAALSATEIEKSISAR
Chain of CD19 on GFP/Luc+ Raji cells (human) (P15391 20-556): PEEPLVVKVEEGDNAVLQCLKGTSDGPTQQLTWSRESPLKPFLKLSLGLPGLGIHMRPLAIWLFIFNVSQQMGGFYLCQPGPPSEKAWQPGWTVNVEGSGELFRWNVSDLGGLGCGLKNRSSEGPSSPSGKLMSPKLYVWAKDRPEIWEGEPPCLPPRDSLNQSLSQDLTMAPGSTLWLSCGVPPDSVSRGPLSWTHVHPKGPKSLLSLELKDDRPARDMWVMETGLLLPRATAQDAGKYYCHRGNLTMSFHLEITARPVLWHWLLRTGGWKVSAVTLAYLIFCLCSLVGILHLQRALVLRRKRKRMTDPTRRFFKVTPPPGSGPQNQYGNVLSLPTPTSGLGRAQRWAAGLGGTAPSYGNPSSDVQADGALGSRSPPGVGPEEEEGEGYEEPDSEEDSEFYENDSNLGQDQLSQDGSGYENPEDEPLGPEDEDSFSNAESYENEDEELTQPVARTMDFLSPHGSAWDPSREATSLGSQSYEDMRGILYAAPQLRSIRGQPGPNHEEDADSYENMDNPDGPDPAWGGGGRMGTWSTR
Chain of truncated BCMA (amino acid 1 to 98) on SKOV3 cells (human) (Q02223 1-98 limits assumed): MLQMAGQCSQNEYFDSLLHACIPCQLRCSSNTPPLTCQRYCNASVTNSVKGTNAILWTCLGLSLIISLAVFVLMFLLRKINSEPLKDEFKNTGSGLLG

Substance	cytotoxicity, flow cytometry with counting beads, E:T 0.1:1, 24 hours [1]	cytotoxicity, flow cytometry with counting beads, E:T 0.3:1 and 1:1, 24 hours [1]	cytotoxicity, real-time cytotoxicity assay (xCELLigence), E:T 0.3:1 and 0.1:1, after 36 hours of co-culture [2]	Specific cell lysis ratio (at E:T = 3:1), luciferase killing assay [3]	cytotoxicity, real-time cytotoxicity assay (xCELLigence), E:T 0.1:1 (fold against Comparative Example 1C) [4]
anti-BCMA chimeric antigen receptor of Comparative Example 3 (J6M0 scFv, hinge domain of CD8, transmembrane domain of CD8, 4-1BB, signal transduction domain of CD3ζ), on CAR-T cells of Comparative Example 3C (from UniProt P01732 183-206; Q07011 214-255; P20963 52-164)	74.8%	–	–	–	–
anti-BCMA-NKp30 chimeric antigen receptor of Example 3 (J6M0 scFv, hinge domain of CD28, NKp30 without immunoglobulin-like domain), on CAR-T cells of Example 3C (from UniProt O14931 129-201; P30273 19-86)	73.5%	80 to 85%	100%	–	–
anti-CD19-NKp30 chimeric antigen receptor of Example 1-4 (FMC63 scFv, hinge domain of IgG4, NKp30 without immunoglobulin-like domain), on CAR-T cells of Example 1-4C (from UniProt O14931 129-201; P30273 19-86)	–	–	–	51%	–
anti-CD19-NKp30 chimeric antigen receptor of Example 1-5 (FMC63 scFv, (EAAAK)3 hinge, NKp30 without immunoglobulin-like domain), on CAR-T cells of Example 1-5C (from UniProt O14931 129-201; P30273 19-86)	–	–	–	83.6%	> 3
